Values of other authors as cited in paper PMC11313252.
pKd: −log10 of the molar value.

Target: EGFR (Homo sapiens) (UniProt P00533)

In the case of EGF (from UniProt P01133), the pKd is given as 8.70.
